The values that follow come from patent EP0485563B1, “POLYETHER-SUBSTITUTED TUMOR AGENTS” (Deutsches Krebsforschungszentrum Stiftung des öffentlichen …, priority 1990, dated 1991).

Bounds are passed on as bounds.

Series [1] in a line: Photodynamic activity of the photosensitiser.
A further series deals with Ovarialcarcinom. In words: Whole-body distribution of radioiodine-labelled agent in tumour-bearing rat (Fig. 4, Fig. 5). Type of series: in vivo, BD IX Ratte. How it is done: (§1) Bei allen diesen Anwendungsversuchen wurden immer 300 µC = 11,1 MBq verabreicht. ES zeigten sich mit den eingesetzten Mitteln, nämlich 1a und 1c und die Verbindung aus Beispiel 2 eine Konzentration von mindestens 30 % des Mittels an der gewünschten Stelle, also am Tumor. Die beigefügte Fig. 4 zeigt das Bild einer BDIX-Rattemit Ovarialcarcinom 42 h nach Injektion, die mit ¹³¹J-HOPAD-CMPEG, also ¹³¹J-Hydroxyphenyl-1-aminomethan-1,1-diphosphonat- Cyanurchlorid aktiviertes Polyethylenglykol (n = ca. 100 bis 110) in einer Menge von 300 µC behandelt war. Das Bild zeigt, daß ganz unten, im Tumor ca. 30 +/- 2 % des Mittels konzentriert sind, während in der Mitte die Leber ca. 10 % zeigt und die Schilddrüse, die oberhalb der Leber sichtbar ist, weit weniger als 2 % des Mittels aufgenommen hat. Diese %-Angaben beziehen sich auf die Gesamtmenge an die mit radiojadmarkierten Mittel im Gesamtkörper der Ratte.
Die beigefügte Fig. 5 zeigt die Messung einer mit ¹³¹I TOP-(CMPEG)4 behandelten BD IX Ratte (auch hier Ovarialcarcinom). Es zeigt sich ein ähnliches Ergebnis wie das von Fig. 4.
Von der gesamten Körperaktivität an radioaktivem Jod finden sich nach 150 h etwa 23 % im Tumor, etwa 12 % in der Leber, etwa 5 % im Blut und etwa 3 - 4 % jeweils in den Muskeln und in der Schilddrüse. Der Rest ist natürlich, wie auch bei der Aufnahme von Fig 4, über den restlichen Körper verteilt.

Series [2] concerns experimentelle Tumoren und Xenotransplantate, human. In words: Accumulation (concentration) of radiolabelled agents in experimental tumours and human xenografts. To be noted: 300 µC = 11,1 MBq administered; 1a and 1c in all tumours/xenografts of the 2nd table, compound of Beispiel 2 only in Walker Carcinosarcom, Osteosarcom, Ovarialcarcinom (O-342). Type of series: in vivo, Ratte; Nacktmaus.
Excerpt: Schließlich wurden für CT-Untersuchungen die folgenden Verbindungen gemäß Beispiel 2 hergestellt: • 4a) Tri-jod-phenol-CMPEG • 4b) Tri-jod-benzoesäure-AMPEG • 4c) Iodoxaminsäure-(AMPEG)₂ Die Anreicherung (Konzentrierung) dieser Mittel wurde an folgenden experimentellen Tumoren und an folgenden Tiermodellen geprüft:
Alle diese experimentellen Tumoren und Xenotransplantate wurden mit den Verbindungen a und c gemäß Beispiel 1 (also 1a und 1c) und drei davon, nämlich das Walker Carcinosarcom, das Osteosarcom und das Ovarialcarcinom (O-342) auch mit dem Diphosphonat gemäß Beispiel 2 untersucht.
as §1
(In general: Xenograft models place foreign cells or tissue in a host animal.)

[3] abbreviates: BDIX rat with Ovarialcarcinom, 42 h after injection, 300 µC, % of total labelled agent in whole body.
Setting [4] is: BD IX rat, Ovarialcarcinom, after 150 h, % of total body activity of radioactive iodine.

Regarding “Tetra-(4 Amino-phenoxy)-phthalocyanin -CMPEG [TAPPC-CMPEG]”, in series [1], the “"bleaching"” value is given as “kaum "bleaching" festzustellen” and the “fotodynamische Aktivität” value is on record as “sehr hohe fotodynamische Aktivität bis über 720 nm”.
“¹³¹-I-Hydroxyphenylaminomethandiphosphonat- (CMPEG)₂ [Verbindung aus Beispiel 2]”: in the series with Ovarialcarcinom (setting [3]), the Leber entry was “ca. 10%”, the Schilddrüse is less than 2% and the “im Tumor konzentriert” value is reported as “ca. 30 +/- 2%”. Moreover, the “Konzentration des Mittels an der gewünschten Stelle, also am Tumor” value in series [2] is not below 30%.
As for “¹³¹I-Tetra(hydroxyphenyl)-porphin-(CMPEG)₄ [1a]”, in the series on Ovarialcarcinom (setting [4]), the “im Blut” value was approximately 5%, the “im Tumor” value is approximately 23%, the “in den Muskeln” value is reported as 3 - 4% and the “in der Leber” value is on record as approximately 12%. In addition, the “in der Schilddrüse” value in the series on Ovarialcarcinom (setting [4]) is on record as 3 - 4%. The “Konzentration des Mittels an der gewünschten Stelle, also am Tumor” value in series [2] is not below 30%.
For the substance “¹¹¹-In-Tetra-(hydroxyphenoxy)-phthalocyanin-(CMPEG)₄ [1c]”, the “Konzentration des Mittels an der gewünschten Stelle, also am Tumor” value in series [2] was not below 30%.
